These results are taken from PMC10648788, “Ahf-Caltide, a Novel Polypeptide Derived from Calpastatin, Protects against Oxidative Stress Injury by Stabilizing the Expression of CaV1.2 Calcium Channel” (International Journal of Molecular Sciences, 2023).

Sequences and labels used below:
B1: Calpastatin (CAST) domain L (domain or fragment, UniProt P20810 3-148, looked up)
chain: PTETKAIPVSQQMEGPHLPNKKKHKKQAVKTEPEKKSQSTKLSVVHEKKSQEGKPKEHTEPKSLPKQASDTGSNDAHNKKAVSRSAEQQPSEKSTEPKTKPQDMISAGGESVAGITAISGKPGDKKKEKKSLTPAVPVESKPDKPS
notes: calpastatin (CAST) domain L (CSL), a.a; In the H2O2 experiments CSL was incubated with H2O2 present; The chemical change is not defined; also called CSL; source: E. coli BL21, purified (Glutathione Sepharose 4B), GST removed using PreScission protease
B2: GST-NT, N terminus of the CaV1.2 channel alpha1 subunit (domain or fragment, UniProt O35505 6-140, looked up)
chain: QPTTPAYRPLPSHLSADTEVRGRGTLVHEAQLNCFYISPGGSNYGSPRPAHANINANAAAGLAPEHIPTPGAALSWQAAIDAGRQAKLMGSAGNTTISTVSSTQRKRQQYGKPKKQSGTTATRPPRALLCLTLKN
notes: CaV1.2 calcium channel alpha1 subunit, N terminus (NT), a.a; 6-140, GenBank AB016287; source: E. coli BL21, purified (Glutathione Sepharose 4B)

Common to all, as to conditions: both partners purified
Assay [1] has as its target T1, GST-PreIQ, PreIQ motif of the CaV1.2 channel alpha1 subunit (UniProt O35505 1599-1639).
T1 construct: CaV1.2 calcium channel alpha1 subunit, PreIQ motif, a.a; 1599-1639, GenBank AB016287; source: E. coli BL21, purified (Glutathione Sepharose 4B)
Nature of the assay: pull-down; GST fusion (15 ug) with 10 uM CSL in 400 uL Tris buffer, 4 C, 4 h; [Ca2+] 10 uM, H2O2 10^-2 M; Coomassie-stained gel quantified.

Assay [2] concerns the target T2, GST-IQ, IQ motif of the CaV1.2 channel alpha1 subunit (UniProt O35505 1648-1668).
T2 construct: CaV1.2 calcium channel alpha1 subunit, IQ motif, a.a; 1648-1668, GenBank AB016287; also called IQ domain; source: E. coli BL21, purified (Glutathione Sepharose 4B)
T2 chain (looked up): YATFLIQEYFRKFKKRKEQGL
The assay is described as above.

In assay [3] the target is T3, GST-CT1, proximal portion of the C terminus of the CaV1.2 channel alpha1 subunit (UniProt O35505 1509-1789).
T3 construct: CaV1.2 calcium channel alpha1 subunit, CT1 (proximal portion of CT), a.a; 1509-1789, GenBank AB016287; source: E. coli BL21, purified (Glutathione Sepharose 4B)
Described as above.

Assay [4] has as its target B2. The description is as above.
Assay [5] deals with T1, GST-PreIQ, PreIQ motif of the CaV1.2 …. As to the kind of experiment: pull-down; GST fusion (15 ug) with 10 uM CSL in 400 uL Tris buffer, 4 C, 4 h; [Ca2+] 10 uM, H2O2 0 M; Coomassie-stained gel quantified.
Assay [6] has as its target T2, GST-IQ, IQ motif of the CaV1.2 channel …. The description is as above.
The target in assay [7] is T3, GST-CT1, proximal portion of the C …. The description is as above.
In assay [8] the target is B2. The description is as above.
The target of assay [9] is T1, GST-PreIQ, PreIQ motif of the CaV1.2 …. As to the kind of experiment: pull-down; GST fusion (15 ug) with 10 uM CSL in 400 uL Tris buffer, 4 C, 4 h; [Ca2+] 10 uM, H2O2 10^-1 M; Coomassie-stained gel quantified.
Assay [10] has as its target T2, GST-IQ, IQ motif of the CaV1.2 channel …. The description is as above.
Assay [11] deals with T3, GST-CT1, proximal portion of the C …. Described as above.
Assay [12] concerns the target B2. Described as above.
Assay [13] addresses B1. As to the kind of experiment: pull-down; GST-NT (15 ug) incubated with CSL 0-30 uM for 4 h in 400 uL Tris buffer, [Ca2+] 10 uM; Coomassie-stained gel quantified; one-site fit, apparent Kd.
Assay [14] concerns the target B1. As to the kind of experiment: pull-down; GST-NT (15 ug) incubated with CSL 0-30 uM for 4 h in 400 uL Tris buffer, [Ca2+] 1 mM; Coomassie-stained gel quantified; one-site fit, apparent Kd.
The target in assay [15] is B1. Nature of the assay: pull-down; GST-NT (15 ug) incubated with CSL 0-30 uM for 4 h in 400 uL Tris buffer, [Ca2+] 25 nM; Coomassie-stained gel quantified; one-site fit, apparent Kd.

T3 sequence (O35505 1509-1789): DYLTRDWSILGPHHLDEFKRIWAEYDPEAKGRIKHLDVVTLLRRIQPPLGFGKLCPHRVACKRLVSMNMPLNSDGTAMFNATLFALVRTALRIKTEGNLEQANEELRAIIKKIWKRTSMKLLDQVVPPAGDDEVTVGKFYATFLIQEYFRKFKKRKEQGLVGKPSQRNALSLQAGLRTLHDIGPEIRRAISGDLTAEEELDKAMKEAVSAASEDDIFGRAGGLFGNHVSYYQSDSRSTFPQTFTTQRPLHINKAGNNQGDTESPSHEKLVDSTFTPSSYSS
T1 sequence (O35505 1599-1639): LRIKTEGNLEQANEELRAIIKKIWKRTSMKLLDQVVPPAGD

In the case of B1, the “binding density of CSL” value was found to be 0.16 in [1]; 0.34 in assay [2]; 1.12 in assay [3]; 0.46 in assay [4]; 0.16 in assay [5]; 0.15 in [6]. Also, the “binding density of CSL” value in assay [7] amounted to 0.52; in assay [8], 0.46; in assay [9], 0.16; in [10], 0.26; in assay [11], 0.68; in assay [12] it was 0.46.

As to B2, the Kd was found to be 1480 nM in assay [13], 1320 nM in assay [14] and 1110 nM in assay [15].
